From patent US20250163155A1 (Bristol-Myers Squibb, published 2025)

Biological target: T1, cynomolgus LAG-3 (cynomolgus monkey)
T1 construct: whole, on cells; also called cynomolgus LAG-3 on transfected CHO cells
Test: flow cytometry on transfected CHO cells and activated cynomolgus T cells

B1: BMS-986016 (antibody, human IgG4 S228P, kappa, V domains shown)
VH: QVQLQQWGAGLLKPSETLSLTCAVYGGSFSDYYWNWIRQPPGKGLEWIGEINHRGSTNSNPSLKSRVTLSLDTSKNQFSLKLRSVTAADTAVYYCAFGYSDYEYNWFDPWGQGTLVTVSS
VL: EIVLTQSPATLSLSPGERATLSCRASQSISSYLAWYQQKPGQAPRLLIYDASNRATGIPARFSGSGSGTDFTLTISSLEPEDFAVYYCQQRSNWPLTFGQGTNLEIKR
notes: also called anti-LAG-3 antibody
- EC50: 21.5 to 34.3 nM
